The target of the test is CRF2-4/zcytor11 heterodimeric receptor (on BaF3/CRF2-4/zcytor11 cells) (human) (UniProt Q08334). The test can be described thus: cell-based or functional assay.

For one substance, proliferation of BaF3/CRF2-4/zcytor11 cells (Alamar Blue), IL-TIF-CEE results are on record in patent US20030077706A1.

Chain of CRF2-4/zcytor11 heterodimeric receptor (on BaF3/CRF2-4/zcytor11 cells) (human) (Q08334 20-325 limits assumed, chain 1 of 2): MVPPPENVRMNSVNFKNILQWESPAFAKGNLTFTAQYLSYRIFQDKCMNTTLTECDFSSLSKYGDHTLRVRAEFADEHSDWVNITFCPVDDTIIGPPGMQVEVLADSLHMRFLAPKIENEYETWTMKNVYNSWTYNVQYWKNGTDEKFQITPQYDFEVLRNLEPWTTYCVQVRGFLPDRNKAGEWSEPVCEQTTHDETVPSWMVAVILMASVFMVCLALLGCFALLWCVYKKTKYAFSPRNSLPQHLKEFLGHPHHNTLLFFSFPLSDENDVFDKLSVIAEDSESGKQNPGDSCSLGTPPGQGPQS
Chain of CRF2-4/zcytor11 heterodimeric receptor (on BaF3/CRF2-4/zcytor11 cells) (human) (chain, as listed by the source limits assumed, chain 2 of 2): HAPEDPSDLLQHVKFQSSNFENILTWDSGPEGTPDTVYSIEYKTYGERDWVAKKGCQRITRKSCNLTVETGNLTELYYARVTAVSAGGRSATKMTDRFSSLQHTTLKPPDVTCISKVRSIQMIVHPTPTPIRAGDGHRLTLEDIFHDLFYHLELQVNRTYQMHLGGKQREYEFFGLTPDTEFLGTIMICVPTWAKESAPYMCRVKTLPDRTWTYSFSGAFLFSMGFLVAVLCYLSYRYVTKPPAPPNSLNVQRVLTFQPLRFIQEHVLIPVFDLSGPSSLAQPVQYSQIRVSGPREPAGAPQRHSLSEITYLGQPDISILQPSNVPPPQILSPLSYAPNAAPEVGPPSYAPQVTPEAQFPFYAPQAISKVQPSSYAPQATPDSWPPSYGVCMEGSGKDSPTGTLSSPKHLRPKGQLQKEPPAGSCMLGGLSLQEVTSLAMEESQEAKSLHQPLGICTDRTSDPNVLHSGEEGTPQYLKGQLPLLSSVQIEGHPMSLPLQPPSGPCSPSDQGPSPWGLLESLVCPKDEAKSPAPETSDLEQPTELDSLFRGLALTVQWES

For the substance “purified human IL-TIF-CEE (IL-TIF with C-terminal Glu-Glu tag) (from UniProt Q9GZX6 34-179) (ligand)”, the proliferation of BaF3/CRF2-4/zcytor11 cells (Alamar Blue), IL-TIF-CEE at 0.06 ng/ml (fold induction) was 2 and the proliferation of BaF3/CRF2-4/zcytor11 cells (Alamar Blue), IL-TIF-CEE at 50 ng/ml (fold over background) was determined as 15.
